Data from patent publication US6339070B1, “Gene construct encoding a heterologous prodrug-activating enzyme and a cell targeting moiety” (Zeneca Limited, priority 1997, dated 2002).
“Also recorded” adds a separate entry of the source.

Test system: recombinant Colo320DM (CEA negative)
Experiment: Retention of secreted fusion protein on recombinant Colo320DM cells (cell based ELISA)
Conditions: listed as (A5B7-CPG2)2 fusion protein
Description: The vertical axis represents optical density readings measured at 490 nm and the horizontal axis the amount of added anti-CEA antibody (IIE6) measured in ng/ml of protein. […] Firstly, the cell lines were fixed and washed to remove the existing supernatant and any unbound material after which increasing concentrations of the anti-CEA antibody (IIE6) were added to the fixed cells. The assay was developed as described in the text to determine the level of retention of any secreted material and whether further added antibody would increase the signal. […] Since the recombinant Colo320DM are CEA negative no increase in signal due to anti-CEA antibody the results for these cells would be expected. In the case of the recombinant LoVo cells the addition signal due the amounts of antibody added in this assay may be swamped except at the highest dose due to the relative strength of the original signal.
LoVo colorectal tumour cells transfected with the (A5B7-CPG2)2 fusion protein gene have been shown both to secrete and to retain the fusion protein on their cell surface. […] The recombinant LoVo cells still gave such a strong initial signal that the added antibody made little difference to the overall signal obtained, which was considerably higher than any of the control experiments.

B1: (A5B7 Fab-CPG2)2 fusion protein: chimaeric A5B7 anti-CEA Fab, heavy chain Fd linked via (G4S)3 linker to CPG2 R6, dimerised through CPG2 (antibody)
heavy: EVKLVESGGGLVQPGGSLRLSCATSGFTFTDYYMNWVRQPPGKALEWLGFIGNKANGYTTEYSASVKGRFTISRDKSQSILYLQMNTLRAEDSATYYCTRDRGLRFYFDYWGQGTTLTVSSASTKGPSVFPLAPCSRSTSESTAALGCLVKDYFPEPVTVSWNSGALTSGVHTFPAVLQSSGLYSLSSVVTVPSSNFGTQTYTCNVDHKPSNTKVDKTVGGGGSGGGGSGGGGSQKRDNVLFQAATDEQPAVIKTLEKLVNIETGTGDAEGIAAAGNFLEAELKNLGFTVTRSKSAGLVVGDNIVGKIKGRGGKNLLLMSHMDTVYLKGILAKAPFRVEGDKAYGPGIADDKGGNAVILHTLKLLKEYGVRDYGTITVLFNTDEEKGSFGSRDLIQEEAKLADYVLSFEPTSAGDEKLSLGTSGIAYVQVQITGKASHAGAAPELGVNALVEASDLVLRTMNIDDKAKNLRFQWTIAKAGQVSNIIPASATLNADVRYARNEDFDAAMKTLEERAQQKKLPEADVKVIVTRGRPAFNAGEGGKKLVDKAVAYYKEAGGTLGVEERTGGGTDAAYAALSGKPVIESLGLPGFGYHSDKAEYVDISAIPRRLYMAARLIMDLGAGK
light: QTVLSQSPAILSASPGEKVTMTCRASSSVTYIHWYQQKPGSSPKSWIYATSNLASGVPARFSGSGSGTSYSLTISRVEAEDAATYYCQHWSSKPPTFGGGTKLEIKRTVAAPSVFIFPPSDEQLKSGTASVVCLLNNFYPREAKVQWKVDNALQSGNSQESVTEQDSKDSTYSLSSTLTLSKADYEKHKVYACEVTHQGLSSPVTKSFNRGEC
  retention of expressed fusion protein on cell surface (OD 490 nm): some retention of the expressed fusion protein (probably non-specific); also recorded: much weaker reading than the LoVo cells but the signal was higher than background
